Data published in patent US20150051149A1 (published 2015).

Biological target: T1, human PXR-GST (Invitrogen) (human, UniProt O75469 111-434, limits assumed)
T1 construct: Captured on an anti-GST antibody chip; also called GST-PXR; GST-tagged PXR; not shown: GST tag
T1 sequence (looked up): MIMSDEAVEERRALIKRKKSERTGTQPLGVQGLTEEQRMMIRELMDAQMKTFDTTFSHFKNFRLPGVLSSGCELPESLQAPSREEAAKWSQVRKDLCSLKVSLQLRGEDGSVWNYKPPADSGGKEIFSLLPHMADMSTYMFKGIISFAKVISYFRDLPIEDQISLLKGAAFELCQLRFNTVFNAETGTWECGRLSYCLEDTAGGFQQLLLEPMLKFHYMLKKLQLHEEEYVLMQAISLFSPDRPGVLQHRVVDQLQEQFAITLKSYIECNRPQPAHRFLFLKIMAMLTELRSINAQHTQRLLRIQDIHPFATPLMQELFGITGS
Assay: SPR, Biacore T100, human PXR-GST captured on anti-GST antibody

B1: Adnectin-3 (designed binder)
chain: MASTSGVSDVPRDLEVVAATPTSLLISWDAPAVPVSKYVIYYWPGALISSMQAFKVPGSKSTATISGLKPGVLYSIVVDALTGDGQGSYVWDPITITYRTEGSGSHHHHHH
kon: 16200 M⁻¹ s⁻¹

B2: Adnectin-2 (designed binder)
chain: MASTSGVSDVPRDLEVVAATPTSLLISWDAPAVTVNNYRITYQPLLQGSSIQHFDVPGSKSTATISGLKPGVGYQITVYASTYTHSKAYYSLPISIYYRTEGSGSHHHHHH
kon: 162000 M⁻¹ s⁻¹
